Test results: patent US20150376265A1 (Genentech, published 2015)

Tests used:
[1] = target: T1, gH/gL, full-length, on the surface of transfected HEK-293T cells (HCMV, UniProt P12824 24-743; P16832 31-278); experiment: FACS on transfected HEK-293T cells
T1 construct: also called cells expressing gH/gL alone; cell-surface expressed gH/gL

[2] = target: T2, Complex I with gH P171S, on virions of HB1 - mutant virus 3 (HCMV, UniProt P12824 24-743; P16832 31-278; P16837 28-171; F5HCP3 26-214; F5HET4 19-129); experiment: cell-based or functional assay
T2 chain 1: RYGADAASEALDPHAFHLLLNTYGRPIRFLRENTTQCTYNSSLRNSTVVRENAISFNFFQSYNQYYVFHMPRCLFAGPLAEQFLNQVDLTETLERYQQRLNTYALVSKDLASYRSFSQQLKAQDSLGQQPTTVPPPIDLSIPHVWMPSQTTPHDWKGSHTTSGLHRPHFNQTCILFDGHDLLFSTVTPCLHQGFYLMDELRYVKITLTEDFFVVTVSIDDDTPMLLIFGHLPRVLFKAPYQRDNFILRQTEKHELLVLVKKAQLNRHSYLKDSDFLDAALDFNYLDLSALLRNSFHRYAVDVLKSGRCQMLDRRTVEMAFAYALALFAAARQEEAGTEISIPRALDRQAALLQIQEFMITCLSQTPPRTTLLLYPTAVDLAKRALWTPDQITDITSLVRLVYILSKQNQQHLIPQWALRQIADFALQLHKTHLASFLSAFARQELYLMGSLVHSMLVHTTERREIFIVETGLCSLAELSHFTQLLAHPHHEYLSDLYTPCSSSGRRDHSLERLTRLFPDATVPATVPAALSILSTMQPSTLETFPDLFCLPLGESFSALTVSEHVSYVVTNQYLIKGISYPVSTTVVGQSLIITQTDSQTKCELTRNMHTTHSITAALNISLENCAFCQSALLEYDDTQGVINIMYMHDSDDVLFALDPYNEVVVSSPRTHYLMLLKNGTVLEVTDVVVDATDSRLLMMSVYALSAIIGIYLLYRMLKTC
T2 chain 2: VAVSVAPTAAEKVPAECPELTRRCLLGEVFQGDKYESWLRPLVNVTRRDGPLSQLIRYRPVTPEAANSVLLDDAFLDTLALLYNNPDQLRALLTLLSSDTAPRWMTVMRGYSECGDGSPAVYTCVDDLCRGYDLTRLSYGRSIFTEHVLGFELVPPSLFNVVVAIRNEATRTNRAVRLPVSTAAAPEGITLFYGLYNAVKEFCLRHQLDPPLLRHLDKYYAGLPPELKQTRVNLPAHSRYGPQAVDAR
T2 chain 3: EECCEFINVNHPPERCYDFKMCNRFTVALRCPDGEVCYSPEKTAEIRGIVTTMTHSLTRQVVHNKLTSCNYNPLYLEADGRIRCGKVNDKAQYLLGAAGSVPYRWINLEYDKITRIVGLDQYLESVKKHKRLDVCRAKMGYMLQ
T2 chain 4: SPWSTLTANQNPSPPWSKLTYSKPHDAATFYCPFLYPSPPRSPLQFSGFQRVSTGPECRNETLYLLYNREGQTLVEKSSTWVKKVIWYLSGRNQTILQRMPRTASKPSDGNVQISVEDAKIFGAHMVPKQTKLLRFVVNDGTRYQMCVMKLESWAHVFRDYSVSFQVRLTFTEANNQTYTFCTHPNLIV
T2 chain 5: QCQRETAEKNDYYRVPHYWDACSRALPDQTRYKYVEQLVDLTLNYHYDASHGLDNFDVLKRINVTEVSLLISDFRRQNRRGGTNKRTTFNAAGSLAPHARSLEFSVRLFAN

[3] = target: T3, Complex I with gH P171H, on virions of HB1 - mutant virus 1 (HCMV, UniProt P12824 24-743; P16832 31-278; P16837 28-171; F5HCP3 26-214; F5HET4 19-129); experiment: cell-based or functional assay
T3 chain 1: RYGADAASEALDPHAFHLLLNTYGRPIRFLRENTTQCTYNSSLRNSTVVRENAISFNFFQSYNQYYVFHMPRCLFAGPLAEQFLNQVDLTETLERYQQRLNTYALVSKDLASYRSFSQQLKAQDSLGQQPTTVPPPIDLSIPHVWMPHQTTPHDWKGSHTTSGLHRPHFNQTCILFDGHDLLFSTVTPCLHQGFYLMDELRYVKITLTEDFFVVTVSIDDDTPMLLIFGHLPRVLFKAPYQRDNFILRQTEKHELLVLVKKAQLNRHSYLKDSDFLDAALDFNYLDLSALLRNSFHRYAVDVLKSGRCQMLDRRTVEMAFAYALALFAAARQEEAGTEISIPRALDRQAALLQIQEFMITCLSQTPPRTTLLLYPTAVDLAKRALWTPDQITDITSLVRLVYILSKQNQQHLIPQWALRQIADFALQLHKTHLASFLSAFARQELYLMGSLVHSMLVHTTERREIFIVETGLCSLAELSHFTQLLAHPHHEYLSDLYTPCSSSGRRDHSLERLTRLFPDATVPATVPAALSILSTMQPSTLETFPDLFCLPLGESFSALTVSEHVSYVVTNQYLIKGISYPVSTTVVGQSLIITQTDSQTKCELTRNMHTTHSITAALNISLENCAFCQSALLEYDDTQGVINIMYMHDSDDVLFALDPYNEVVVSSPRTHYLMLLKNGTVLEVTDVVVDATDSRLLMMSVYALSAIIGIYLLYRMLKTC
T3 chain 2: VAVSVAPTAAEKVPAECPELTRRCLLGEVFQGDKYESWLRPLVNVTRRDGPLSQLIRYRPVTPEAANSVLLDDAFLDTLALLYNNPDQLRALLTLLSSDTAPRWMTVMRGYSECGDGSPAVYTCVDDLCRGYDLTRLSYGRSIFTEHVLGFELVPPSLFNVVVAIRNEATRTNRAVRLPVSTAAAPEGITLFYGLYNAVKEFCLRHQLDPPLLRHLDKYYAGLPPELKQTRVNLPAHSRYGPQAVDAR
T3 chain 3: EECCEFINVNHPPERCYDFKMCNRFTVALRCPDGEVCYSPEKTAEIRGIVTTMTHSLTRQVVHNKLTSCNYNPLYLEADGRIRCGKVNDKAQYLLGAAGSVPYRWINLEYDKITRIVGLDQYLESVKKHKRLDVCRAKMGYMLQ
T3 chain 4: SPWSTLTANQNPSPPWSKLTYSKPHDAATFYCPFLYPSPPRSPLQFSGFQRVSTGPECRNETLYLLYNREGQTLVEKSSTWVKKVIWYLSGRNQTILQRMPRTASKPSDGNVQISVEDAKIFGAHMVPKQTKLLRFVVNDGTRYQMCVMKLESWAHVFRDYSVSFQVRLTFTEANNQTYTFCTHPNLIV
T3 chain 5: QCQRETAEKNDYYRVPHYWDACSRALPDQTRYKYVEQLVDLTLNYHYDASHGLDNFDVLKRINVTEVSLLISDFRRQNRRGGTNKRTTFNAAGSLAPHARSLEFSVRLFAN

[4] = target: T4, gH/gL/gO on the surface of cells (HCMV, UniProt P12824 24-743; P16832 31-278; F5HGP1 32-472); experiment: FACS on transfected cells, data not shown
T4 construct: also called Complex II; cells expressing gH/gL/gO
T4 sequence (F5HGP1 32-472 limits assumed, one chain of several): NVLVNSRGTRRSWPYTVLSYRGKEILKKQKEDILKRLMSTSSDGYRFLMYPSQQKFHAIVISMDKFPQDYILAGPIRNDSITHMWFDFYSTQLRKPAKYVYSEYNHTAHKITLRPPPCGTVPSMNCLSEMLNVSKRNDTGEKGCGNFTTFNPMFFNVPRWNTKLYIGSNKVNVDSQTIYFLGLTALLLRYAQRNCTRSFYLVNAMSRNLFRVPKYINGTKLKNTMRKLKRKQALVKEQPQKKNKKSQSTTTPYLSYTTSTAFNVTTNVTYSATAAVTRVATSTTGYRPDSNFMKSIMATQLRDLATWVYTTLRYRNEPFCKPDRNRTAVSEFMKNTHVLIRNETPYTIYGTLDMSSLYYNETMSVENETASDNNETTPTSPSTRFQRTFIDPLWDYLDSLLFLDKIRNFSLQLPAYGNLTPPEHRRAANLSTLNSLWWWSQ

B1: hu8G8 (lambda4 8G8 graft and hu8G8.VH1) (antibody, V domains shown)
VH: EVQLVQSGAEVKKPGASVKVSCKASGYTFTNYGMNWVRQAPGQGLEWIGWINTYTGEPTYADDFKGRVTITRDTSTSTAYLELSSLRSEDTAVYYCARSWYYVSNYWYFDVWGQGTLVTVSS
VL: SVLTQSPSASASLGASVKLTCTLSSQHSTYTIEWYQQQPGKGPRYLMKLKKDGSHSTGDGIPDRFSGSSSGADRYLTISNLQSEDEADYYCGVGDTIKEQFVYVFGGGTKLTVLG
notes: also called hu8G8 with VH1; Humanized 8G8 with VH1
[1]
  binding result: no binding (tested: saturating primary antibody)
[2]
  hu8G8 EC50, neutralisation of HB1 - mutant virus 3, Data Set 1: 1 ng/mL
  hu8G8 EC50, neutralisation of HB1 - mutant virus 3, Data Set 2: 0.1 ng/mL
[3]
  hu8G8 EC50, neutralisation of HB1 - mutant virus 1, Data Set 1: 10 ng/mL
  hu8G8 EC50, neutralisation of HB1 - mutant virus 1, Data Set 2: 0.6 ng/mL
[4]
  binding result: no binding
